# From patent publication US12269859B2, “Synthetic immune receptors and methods of use thereof” (Angeles Therapeutics, Inc., priority 2016, dated 2025)
# System: target antigen-expressing cell line
# Test: Jurkat NFAT-GFP assay, coculture with target cell lines expressing the respective target antigen (summary Table 10A)
# Assay type: cell-based, human
# Parameters: key: The signs +/−, +, 2+ etc. after the name of the cell lines indicate the relative degree of positivity on the Jurkat-NFAT-GFP assay as measured by the % GFP positive cells; +: relative degree of positivity on the Jurkat-NFAT-GFP assay as measured by the % GFP positive cells; 2+: relative degree of positivity on the Jurkat-NFAT-GFP assay as measured by the % GFP positive cells
# Details: relative % GFP positive cells; for NFAT-GFP ASSAY Positive Cell lines: RAJI: SIR-expressing Jurkat-NFAT-GFP cells cocultured with RAJI; for NFAT-GFP ASSAY Positive Cell lines: LAN5: SIR-expressing Jurkat-NFAT-GFP cells cocultured with LAN5
# Procedure: (B) Induction of NFAT promoter driven GFP expression. The control vector- and SIR-expressing Jurkat-NFAT-GFP cocultured for 4-24 hours with the target antigen-expressing cell line (described above) and their ability to bind to the target antigen is assayed by measuring induction of GFP expression using Flow Cytometry. Cellular supernatant is collected and assayed for the induction of cytokines (e.g., IL2).
# Jurkat NFAT-GFP Assay For Synthetic Immune Receptors. The Jurkat-NFAT-GFP cells are engineered in such a way that the IL-2 promoter, which carries NFAT binding sites, is cloned upstream of the GFP gene. These cells have been used to study signaling via TCR and CAR. The different SIRs were stably expressed in Jurkat NFAT-GFP cells by lentiviral mediated gene transfer, followed by selection with puromycin. The SIR-expressing Jurkat-NFAT-GFP cells were cocultured with the target cells at E:T ratio of approximately 1:2 for approximately 4 hours to 18 hours. When the interaction between SIRs and their target antigen results in activation of the NFAT pathway, GFP expression is induced.
# Induction of GFP expression by coculturing of Jurkat-NFAT-GFP cells expressing different SIR constructs and the different target cells was studied essentially as described previously (Wu, Roybal, Puchner, Onuffer, & Lim, 2015). GFP expression was monitored by FACS analysis. A few representative examples of this assay are shown in the FIG. 13A-B. In panel A, control Jurkat-NFAT-GFP cells or those expressing SIRs targeting CD19 (clone ID 051716-I08), MPL (Clone ID: 040716-A07) and BCMA (Clone ID: 011116-A07) were incubated with RAJI (top), HEL (middle) or U266 (bottom) cells, respectively. […] In panel B, Jurkat cells expressing SIR targeting CDH6 (Clone ID: 051716-J05), CD276 (Clone ID: 050516-Q06) and Her2/neu (Clone ID: 050516-I03) were incubated with SKOV3 (top) and […] (middle and bottom) cells, respectively. […] The Jurkat-NFAT-GFP cells were engineered to express different SIRs targeting other antigens and the experiment repeated upon coculture with the target cells expressing their respective target antigen. The Jurkat-NFAT-GFP (parental) cells were used as control. The names of different SIRs, their SEQ ID NOs, component antigen binding domains and TCR chains can be determined by reference to Tables 7A-7H. A SIR is considered positive in the assay in case the SIR expressing Jurkat-NFAT-GFP cells show greater % GFP positive cells when cultured with the target cell line as compared to parental Jurkat-NFAT-GFP cells. […] The signs +/−, +, 2+ etc. after the name of the cell lines indicate the relative degree of positivity on the Jurkat-NFAT-GFP assay as measured by the % GFP positive cells after culture of the SIR expressing Jurkat-NFAT-GFP cells with that cell line. […] In addition, great diversity of response against the same target cell line is observed with Jurkat cells expressing SIRs containing different antigen binding domains targeting the same antigen (e.g., SIRs having antigen binding domains derived form different CD19 antibodies) even when the SIRs share the same TCR chains and linkers. Finally, Jurkat cells expressing SIRs targeting different antigens (e.g. CD19 vs CD20) show a diversitiy of response when exposed to the same target cell line. Thus, a diverse immune response can be generated against a single target cell by combining SIRs with different TCR chains, linkers, antigen binding domains and target specificity. Table 10A also summarizes the results of GLuc based T cell cytotoxicity assay observed with different SIRs when exposed to their target cell lines. […]
Molecule,NFAT-GFP ASSAY Positive Cell lines: RAJI,NFAT-GFP ASSAY Positive Cell lines: LAN5
"121515-X07 (protein, Synthetic Immune Receptor (SIR)) MALPVTALLLPLALLLHAARPLEGKPIPNPLLGLDSTGSGEDLKNVFPPEVAVFEPSKAEIAHTQKATLVCLATGFYPDHVELSWWVNGKEVHSGVCTDPQPLKEQPALNDSRYCLSSRLRVSATFWQNPRNHFRCQVQFYGLSENDEWTQDRAKPVTQIVSAEAWGRADCGITSASYHQGVLSATILYEILLGKATLYAVLVSALVLMAMVKRKDSRGRAKRSGSGATNFSLLKQAGDVEENPGPTSTMALPVTALLLPLALLLHAARPDEIVLTQSPATLSLSPGERATLSCSASSSVSYMHWYQQKPGQAPRLLIYDTSKLASGIPARFSGSGSGTDFTLTISSLEPEDVAVYYCFQGSVYPFTFGQGTKLEIKRGGGGSGGGGSGGGGSQVQLQESGPGLVKPSQTLSLTCTVSGGSISTSGMGVGWIRQHPGKGLEWIGHIWWDDDKRYNPALKSRVTISVDTSKNQFSLKLSSVTAADTAVYYCARMELWSYYFDYWGQGTLVTVSSTREQKLISEEDLGSGTPFPSLAPPIMLLVDGKQQMVVVCLVLDVAPPGLDSPIWFSAGNGSALDAFTYGPSPATDGTWTNLAHLSLPSEELASWEPLVCHTGPGAEGHSRSTQPMHLSGEASTARTCPQEPLRGTPGGALWLGVLRLLLFKLLLFDLLLTCSCLCDPAGPLPSPATTTRLRALGSHRLHPATETGGREATSSPRPQPRDRRWGDTPPGRKPGSPVRAKRSGSGVKQTLNFDLLKLAGDVESNPGPSRGHMTEYKPTVRLATRDDVPRAVRTLAAAFADYPATRHTVDPDRHIERVTELQELFLTRVGLDIGKVWVADDGAAVAVWTTPESVEAGAVFAEIGPRMAELSGSRLAAQQQMEGLLAPHRPKEPAWFLATVGVSPDHQGKGLGSAVVLPGVEAAERAGVPAFLETSAPRNLPFYERLGFTVTADVEVPEGPRTWCMTRKPGA",RAJI (+),–
"042916-C05 (protein, Synthetic Immune Receptor (SIR)) MALPVTALLLPLALLLHAARPLEGKPIPNPLLGLDSTGSGEDLKNVFPPEVAVFEPSKAEIAHTQKATLVCLATGFYPDHVELSWWVNGKEVHSGVCTDPQPLKEQPALNDSRYCLSSRLRVSATFWQNPRNHFRCQVQFYGLSENDEWTQDRAKPVTQIVSAEAWGRADCGITSASYHQGVLSATILYEILLGKATLYAVLVSALVLMAMVKRKDSRGRAKRSGSGATNFSLLKQAGDVEENPGPTSTMALPVTALLLPLALLLHAARPDVQMIQTPDSLAVSLGQRATISCRASESVDNYGISFMHWYQQKPGQSPKLLIYRASNLESGIPARFSGSGSRTDFTLTINPVETDDVATYYCQQNNKDPPTFGGGTKLEIKGGGGSGGGGSGGGGSGGGGSQVQLQQSGAELVKPGASVKISCKASGYAFSSYWMNWVKQRPGKGLEWIGQIYPGDGDTTYNGKFKGKATLTADKSSSTVYMQLNSLTSEDSAVYFCVRYYYGSSGYFDYWGQGTTLTVSSTREQKLISEEDGSGIQNPDPAVYQLRDSKSSDKSVCLFTDFDSQTNVSQSKDSDVYITDKCVLDMRSMDFKSNSAVAWSNKSDFACANAFNNSIIPEDTFFPSSDVPCDVKLVEKSFETDTNLNFQNLSVIGFRILLLKVAGFNLLMTLRLWSSRAKRSGSGVKQTLNFDLLKLAGDVESNPGPSRGHMTEYKPTVRLATRDDVPRAVRTLAAAFADYPATRHTVDPDRHIERVTELQELFLTRVGLDIGKVWVADDGAAVAVWTTPESVEAGAVFAEIGPRMAELSGSRLAAQQQMEGLLAPHRPKEPAWFLATVGVSPDHQGKGLGSAVVLPGVEAAERAGVPAFLETSAPRNLPFYERLGFTVTADVEVPEGPRTWCMTRKPGA",–,LAN5 (+/−)
"042916-D02 (protein, Synthetic Immune Receptor (SIR)) MALPVTALLLPLALLLHAARPLEGKPIPNPLLGLDSTGSGEDLKNVFPPEVAVFEPSKAEIAHTQKATLVCLATGFYPDHVELSWWVNGKEVHSGVCTDPQPLKEQPALNDSRYCLSSRLRVSATFWQNPRNHFRCQVQFYGLSENDEWTQDRAKPVTQIVSAEAWGRADCGITSASYHQGVLSATILYEILLGKATLYAVLVSALVLMAMVKRKDSRGRAKRSGSGATNFSLLKQAGDVEENPGPTSTMALPVTALLLPLALLLHAARPDVQMIQTPSSLSASLGDRVTISCRASQDIGNYLNWYQQKPDGTVKLLIYYTSRLHSGVPSRFSGSGSGTEYSLTISNLEQEDIATYFCQQGSALPPTFGGGTKLEINGGGGSGGGGSGGGGSALQLQQSGAELVRPGASVTLSCKASGYTFTDYEMHWVKQTPVHGLEWIGAIDPETGGTAYNQKFEGKAILTADKSSSTAYMELRSLTSEDSPVYYCARRRYYGSSSFDYWGQGTTLTVSSTREQKLISEEDGSGIQNPDPAVYQLRDSKSSDKSVCLFTDFDSQTNVSQSKDSDVYITDKCVLDMRSMDFKSNSAVAWSNKSDFACANAFNNSIIPEDTFFPSSDVPCDVKLVEKSFETDTNLNFQNLSVIGFRILLLKVAGFNLLMTLRLWSSRAKRSGSGVKQTLNFDLLKLAGDVESNPGPSRGHMTEYKPTVRLATRDDVPRAVRTLAAAFADYPATRHTVDPDRHIERVTELQELFLTRVGLDIGKVWVADDGAAVAVWTTPESVEAGAVFAEIGPRMAELSGSRLAAQQQMEGLLAPHRPKEPAWFLATVGVSPDHQGKGLGSAVVLPGVEAAERAGVPAFLETSAPRNLPFYERLGFTVTADVEVPEGPRTWCMTRKPGA",–,LAN5 (2+)
"052316-D03 (protein, Synthetic Immune Receptor (SIR)) MALPVTALLLPLALLLHAARPDEIVLTQSPATLSLSPGERATLSCSASSSVSYMHWYQQKPGQAPRLLIYDTSKLASGIPARFSGSGSGTDFTLTISSLEPEDVAVYYCFQGSVYPFTFGQGTKLEIKRGGGGSGGGGSGGGGSQVQLQESGPGLVKPSQTLSLTCTVSGGSISTSGMGVGWIRQHPGKGLEWIGHIWWDDDKRYNPALKSRVTISVDTSKNQFSLKLSSVTAADTAVYYCARMELWSYYFDYWGQGTLVTVSSLEDLKNVFPPEVAVFEPSEAEISHTQKATLVCLATGFYPDHVELSWWVNGKEVHSGVSTDPQPLKEQPALNDSRYCLSSRLRVSATFWQNPRNHFRCQVQFYGLSENDEWTQDRAKPVTQIVSAEAWGRADCGFTSESYQQGVLSATILYEILLGKATLYAVLVSALVLMAMVKRKDSRGRAKRSGSGATNFSLLKQAGDVEENPGPTSMDWIWRILFLVGAATGAHSFEGSGTREQKLISEEDGSGIQNPDPAVYQLRDSKSSDKSVCLFTDFDSQTNVSQSKDSDVYITDKCVLDMRSMDFKSNSAVAWSNKSDFACANAFNNSIIPEDTFFPSPESSCDVKLVEKSFETDTNLNFQNLSVIGFRILLLKVAGFNLLMTLRLWSSRAKRSGSGVKQTLNFDLLKLAGDVESNPGPSRGHMTEYKPTVRLATRDDVPRAVRTLAAAFADYPATRHTVDPDRHIERVTELQELFLTRVGLDIGKVWVADDGAAVAVWTTPESVEAGAVFAEIGPRMAELSGSRLAAQQQMEGLLAPHRPKEPAWFLATVGVSPDHQGKGLGSAVVLPGVEAAERAGVPAFLETSAPRNLPFYERLGFTVTADVEVPEGPRTWCMTRKPGA",RAJI (+),–
